In test [1] the target is T1, recombinant GFP–N-Myc (UniProt P04198 1-464).
T1 chain: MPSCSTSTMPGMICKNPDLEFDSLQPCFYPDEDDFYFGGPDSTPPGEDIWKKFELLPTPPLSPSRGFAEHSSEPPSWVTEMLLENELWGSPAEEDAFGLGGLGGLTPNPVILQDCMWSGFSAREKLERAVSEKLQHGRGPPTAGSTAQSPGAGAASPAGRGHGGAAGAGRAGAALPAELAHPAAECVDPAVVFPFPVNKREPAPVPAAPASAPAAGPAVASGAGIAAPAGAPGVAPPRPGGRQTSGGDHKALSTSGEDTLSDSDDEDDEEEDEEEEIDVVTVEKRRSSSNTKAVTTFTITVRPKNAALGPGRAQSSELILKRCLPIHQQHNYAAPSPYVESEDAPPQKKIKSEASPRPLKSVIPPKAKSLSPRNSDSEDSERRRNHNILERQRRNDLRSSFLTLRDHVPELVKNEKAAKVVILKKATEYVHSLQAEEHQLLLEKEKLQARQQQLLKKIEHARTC
The experiment in a line: MST.

In test [2] the target is recombinant GFP–C-Myc (UniProt P01106 1-454). The experiment in a line: MST.

This passage reports EC50 results from publication PMC12259267 (2025).

Sequence of recombinant GFP–C-Myc (P01106 whole entry): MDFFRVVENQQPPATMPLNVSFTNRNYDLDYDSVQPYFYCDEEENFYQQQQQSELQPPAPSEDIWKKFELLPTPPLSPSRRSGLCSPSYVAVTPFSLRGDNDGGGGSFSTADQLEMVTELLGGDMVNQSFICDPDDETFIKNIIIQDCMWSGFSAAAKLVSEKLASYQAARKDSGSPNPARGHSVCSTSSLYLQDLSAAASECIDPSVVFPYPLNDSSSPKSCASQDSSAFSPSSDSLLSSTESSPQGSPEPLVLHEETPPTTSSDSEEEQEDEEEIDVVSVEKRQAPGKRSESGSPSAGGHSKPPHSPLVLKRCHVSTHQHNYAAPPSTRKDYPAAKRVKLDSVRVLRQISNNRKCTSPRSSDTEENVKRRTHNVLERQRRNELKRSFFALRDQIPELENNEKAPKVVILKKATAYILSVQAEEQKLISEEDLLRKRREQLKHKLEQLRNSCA

B1: KLHL37-His recombinant protein (natural protein)
chain: MSVSVHENRKSRASSGSINIYLFHKSSYADSVLTHLNLLRQQRLFTDVLLHAGNRTFPCHRAVLAACSRYFEAMFSGGLKESQDSEVNFDNSIHPEVLELLLDYAYSSRVIINEENAESLLEAGDMLEFQDIRDACAEFLEKNLHPTNCLGMLLLSDAHQCTKLYELSWRMCLSNFQTIRKNEDFLQLPQDMVVQLLSSEELETEDERLVYESAINWISYDLKKRYCYLPELLQTVRLALLPAIYLMENVAMEELITKQRKSKEIVEEAIRCKLKILQNDGVVTSLCARPRKTGHALFLLGGQTFMCDKLYLVDQKAKEIIPKADIPSPRKEFSACAIGCKVYITGGRGSENGVSKDVWVYDTLHEEWSKAAPMLVARFGHGSAELKHCLYVVGGHTAATGCLPASPSVSLKQVEHYDPTINKWTMVAPLREGVSNAAVVSAKLKLFAFGGTSVSHDKLPKVQCYDQCENRWTVPATCPQPWRYTAAAVLGNQIFIMGGDTEFSACSAYKFNSETYQWTKVGDVTAKRMSCHAVASGNKLYVVGGYFGIQRCKTLDCYDPTLDVWNSITTVPYSLIPTAFVSTWKHLPS
Usually EC50 stands for the concentration that produces a half-maximal response. In the case of B1, the EC50 in test [1] amounted to 0.0983 nM; in test [2] it was 2.54 nM.
